# Legend:
# Type in all cases: physicochemical
# [1] = Structure and thermal stability (Tm) by circular dichroism; conditions: 0.1 mg/ml; for Structure change: circular dichroism 190-250 nm, 20 mM sodium phosphate pH 5.5, 20° C., versus wild-type EGF; for Tm (melting temperature): circular dichroism, 20° C. to 95° C. at 1° C./min
# Experimental: The structure and thermal stability of the purified EGF mutant were measured through a circular dichroism analysis using a J-810 spectrometer (JASCO). As the wild-type EGF, the purified EGF prepared in Example 2 was used. In order to analyze the structure, each EGF was dissolved in 20 mM sodium phosphate (pH 5.5) to be uniformly a final concentration of 0.1 mg/ml. And then, the dissolved EGF solution was added to 0.1 cm cell, and then its structure was analyzed under the conditions of, as 190 nm to 250 nm region, band width 1 nm, response 0.25 sec, data pitch 0.1 nm, scanning speed 20 nm/min, cell length 1 cm, accumulation 8 times, and a temperature of 20° C.
# In order to analyze the thermal stability, a wavelength of 200 nm was determined through a comparison analysis of far-UV at the Tm (melting temperature) of 20° C. and 95° C., and progressed in a concentration of 0.1 mg/ml in 0.1 cm cell. As the conditions, it was measured at 20° C. to 95° C. under condition of 1° C./min.
# The structure is changed at the band of about 195 nm when generating a folding-unfolding phenomenon. Using it, the melting temperature (Tm) was measured in the range of 20 to 95° C., and thus the accurate Tm value was analyzed. As a result, as for the structure change, most mutants had the similar structure as the wild-type EGF, and thus there were few changes. […] It can be confirmed that the thermal stabilities of M2 and M3 were improved by 87° C.
# [2] = Solubility of wild-type and mutant EGFs in 20 mM sodium phosphate (pH 5.5)
# Experimental: 1 mg of the respective wild-type and mutant EGFs prepared was dissolved in 1 ml of 20 mM sodium phosphate (pH 5.5 that is the similarly pH environment as cosmetics). In order to remove undissolved EGF, the mixture thus obtained was centrifuged and then supernatant was obtained. The concentration of the supernatant thus obtained was measured by using a Bradford method and UV method.
# [3] = Circular dichroism after incubation at 60° C.; conditions: 0.3 mg/ml, 20 mM sodium phosphate pH 5.5, 60° C., five days
# Experimental: The stabilities of wild-type EGF and mutants should be confirmed through being stored at room temperature for a long period of time, but there is a disadvantage in that the time is too long. Therefore, the incubation test was performed at extreme environment for a short period of time. 0.3 mg/ml of each of the wild-type EGF and mutants was dissolved in 20 mM sodium phosphate (pH 5.5), and then subjected to the incubation in a water bath of 60° C. The sampling was performed per 24 hours unit, and then centrifuged at 13000 rpm and 4° C. for 15 minutes to collect the supernatant. The supernatant was diluted with 20 mM sodium phosphate (pH 5.5), and its structure was measured by using a circular dichroism. And then, the supernatant was added to 0.1 cm cell, and its structure was analyzed under the conditions of, in a region of 190 nm to 250 nm, band width 1 nm, response 0.25 sec, data pitch 0.1 nm, scanning speed 20 nm/min, cell length 1 cm, accumulation 8 times, a temperature of 20° C. […] In order to easily confirm such a result, the graph as illustrated in FIG. 3 is used using the ratio of the signal value at a first day to the signal value at 200 nm that has the biggest difference of signals. Table. […] From such a result, it can be confirmed that the EGF mutants prepared in the present invention have excellent thermal stability and solubility.
Substance,Structure change [1],Tm (melting temperature) [1],"Solubility ([2]; 1 mg in 1 ml 20 mM sodium phosphate pH 5.5, supernatant, Bradford and UV method) [µg/mL]","Solubility (Comparison with wild-type %) ([2]; 20 mM sodium phosphate pH 5.5, relative to wild-type EGF) [%]",Percentage to wild-type EGF (CD signal value at 200 nm) [3] [%]
"A-4-1: EGF mutant, fourth serine substituted with glutamic acid (SEQ ID NO: 62) (NSDEECPLSHDGYCLHDGVCMYIEALDKYACNCVVGYIGERCQYRDLKWWELR; not fully specified; Epidermal growth factor; UniProt P01133 971-1023, looked up, variant S4E)",No change,(76° C.),,,
"A-8-2: EGF mutant, eighth leucine substituted with serine (SEQ ID NO: 63) (NSDSECPSSHDGYCLHDGVCMYIEALDKYACNCVVGYIGERCQYRDLKWWELR; not fully specified; Epidermal growth factor; UniProt P01133 971-1023, looked up, variant L8S)",No change,(76° C.),699.1,137,
"A-8-3: EGF mutant, eighth leucine substituted with proline (SEQ ID NO: 64) (NSDSECPPSHDGYCLHDGVCMYIEALDKYACNCVVGYIGERCQYRDLKWWELR; not fully specified; Epidermal growth factor; UniProt P01133 971-1023, looked up, variant L8P)",No change,(76° C.),,,
"B-19-2: EGF mutant, 19th valine substituted with serine (SEQ ID NO: 67) (NSDSECPLSHDGYCLHDGSCMYIEALDKYACNCVVGYIGERCQYRDLKWWELR; not fully specified; Epidermal growth factor; UniProt P01133 971-1023, looked up, variant V19S)",No change,(76° C.),,,
"B-19-3: EGF mutant, 19th valine substituted with glutamic acid (SEQ ID NO: 68) (NSDSECPLSHDGYCLHDGECMYIEALDKYACNCVVGYIGERCQYRDLKWWELR; not fully specified; Epidermal growth factor; UniProt P01133 971-1023, looked up, variant V19E)",No change,(76° C.),,,84.22
"B-19-4: EGF mutant, 19th valine substituted with aspartic acid (SEQ ID NO: 69) (NSDSECPLSHDGYCLHDGDCMYIEALDKYACNCVVGYIGERCQYRDLKWWELR; not fully specified; Epidermal growth factor; UniProt P01133 971-1023, looked up, variant V19D)",No change,(76° C.),,,
"B-19-5: EGF mutant, 19th valine substituted with lysine (SEQ ID NO: 70) (NSDSECPLSHDGYCLHDGKCMYIEALDKYACNCVVGYIGERCQYRDLKWWELR; not fully specified; Epidermal growth factor; UniProt P01133 971-1023, looked up, variant V19K)",No change,(76° C.),,,
"C-26-2: EGF mutant, 26th leucine substituted with serine (SEQ ID NO: 73) (NSDSECPLSHDGYCLHDGVCMYIEASDKYACNCVVGYIGERCQYRDLKWWELR; not fully specified; Epidermal growth factor; UniProt P01133 971-1023, looked up, variant L26S)",No change,(76° C.),,,
"D-34-1: EGF mutant, 34th valine substituted with serine (SEQ ID NO: 75) (NSDSECPLSHDGYCLHDGVCMYIEALDKYACNCSVGYIGERCQYRDLKWWELR; not fully specified; Epidermal growth factor; UniProt P01133 971-1023, looked up, variant V34S)",No change,(76° C.),,,
"D-34-2: EGF mutant, 34th valine substituted with glutamic acid (SEQ ID NO: 76) (NSDSECPLSHDGYCLHDGVCMYIEALDKYACNCEVGYIGERCQYRDLKWWELR; not fully specified; Epidermal growth factor; UniProt P01133 971-1023, looked up, variant V34E)",No change,(76° C.),,,111.10
"D-34-3: EGF mutant, 34th valine substituted with aspartic acid (SEQ ID NO: 77) (NSDSECPLSHDGYCLHDGVCMYIEALDKYACNCDVGYIGERCQYRDLKWWELR; not fully specified; Epidermal growth factor; UniProt P01133 971-1023, looked up, variant V34D)",No change,(76° C.),,,
"D-34-4: EGF mutant, 34th valine substituted with lysine (SEQ ID NO: 78) (CNCKVGYIGE)",No change,(76° C.),,,
"D-35-5: EGF mutant, 35th valine substituted with serine (SEQ ID NO: 79) (CNCVSGYIGE)",No change,(76° C.),,,
"D-35-7: EGF mutant, 35th valine substituted with aspartic acid (SEQ ID NO: 81) (CNCVDGYIGE)",No change,(76° C.),,,
"D-35-8: EGF mutant, 35th valine substituted with lysine (SEQ ID NO: 82) (CNCVKGYIGE)",No change,(76° C.),,,
"D-38-9: EGF mutant, 38th isoleucine substituted with serine (SEQ ID NO: 83) (CNCVVGYSGE)",No change,(76° C.),,,
"D-38-11: EGF mutant, 38th isoleucine substituted with glutamic acid (SEQ ID NO: 85) (CNCVVGYEGE)",No change,(76° C.),,,
"D-38-12: EGF mutant, 38th isoleucine substituted with aspartic acid (SEQ ID NO: 86) (CNCVVGYDGE)",No change,(76° C.),,,
"E-48-3: EGF mutant, 48th lysine substituted with arginine (SEQ ID NO: 90) (RCQYRDLRWWELR)",No change,(76° C.),,,
"E-50-4: EGF mutant, 50th tryptophan substituted with serine (SEQ ID NO: 91) (RCQYRDLKWSELR)",No change,(76° C.),,,
"E-50-5: EGF mutant, 50th tryptophan substituted with histidine (SEQ ID NO: 92) (RCQYRDLKWHELR)",No change,(76° C.),,,
"E-50-6: EGF mutant, 50th tryptophan substituted with glutamic acid (SEQ ID NO: 93) (RCQYRDLKWEELR)",No change,(76° C.),,,

# From US9102755B2, “Highly stabilized epidermal growth factor mutants” (PnP Biopharm Co., Ltd., priority 2013, dated 2015)
